Reference: article PMC3725505

biological target: Kelch domain of human Keap1 (residues 321-609) (human), Q14145; assay: ITC
Sequence (Q14145 321-609): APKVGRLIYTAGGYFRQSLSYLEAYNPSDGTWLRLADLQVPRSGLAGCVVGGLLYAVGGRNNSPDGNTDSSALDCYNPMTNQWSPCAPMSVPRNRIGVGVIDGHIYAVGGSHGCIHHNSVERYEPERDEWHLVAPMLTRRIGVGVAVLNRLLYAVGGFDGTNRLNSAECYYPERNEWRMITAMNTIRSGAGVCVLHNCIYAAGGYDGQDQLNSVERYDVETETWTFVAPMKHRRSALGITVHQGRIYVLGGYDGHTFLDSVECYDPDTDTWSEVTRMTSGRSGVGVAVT

| Binder | Kd [nM] | dH [kcal/mol] | stoichiometry N |
| --- | --- | --- | --- |
| ANGNANEENGEQEADNEVDE (modifications not checked) [PTMA isoform 2 peptide (20-mer)] | 2620 | -17.3 | 1.05 |
| FAQLQLDPETGEFLPIQPAQ (modifications not checked) [NRF2 site 1 E78P peptide (20-mer)] | 7 | -16.8 | – |
| ANGNAENEENGEQEADNEVD (modifications not checked) [PTMA isoform 1 peptide (20-mer)] | 11600 | -14.7 | 1.07 |

Continued by falling Kd, values first:

| Kd [nM] | dH [kcal/mol] | stoichiometry N | Binder |
| --- | --- | --- | --- |
| 1300 | – | – | LSSKEVDPSTGELQSLQMPE (modifications not checked) [p62 peptide (20-mer)] |
| 23 | -17 | 1.08 | FAQLQLDEETGEFLPIQPAQ (modifications not checked) [NRF2 site 1 peptide (20-mer)] |
